Paper PMC4928626

Assays:
[1] = biological target: aerobactin synthetase IucA from hypervirulent Klebsiella pneumoniae hvKP1 (Klebsiella pneumoniae hvKP1 (hypervirulent pathotype)); assay: native gel or EMSA
[2] = biological target: aerobactin synthetase IucA from hypervirulent Klebsiella pneumoniae hvKP1 (Klebsiella pneumoniae hvKP1 (hypervirulent pathotype)); assay: SAXS
[3] = biological target: aerobactin synthetase IucA from hypervirulent Klebsiella pneumoniae hvKP1 (Klebsiella pneumoniae hvKP1 (hypervirulent pathotype)); assay: SEC

Measured: stoichiometry N

aerobactin synthetase IucA from hypervirulent Klebsiella pneumoniae hvKP1 (from UniProt A0ACD7U9R1 1-596) (enzyme)
4: all assays above
